From the supplement of paper PMC12636428

Test system: Saccharomyces cerevisiae
Experiment: transcriptional activation domain activity (GFP:mCherry ratio, weighted mean of sorted bins, harmonized to initial dataset scale) (arbitrary fluorescence ratio units); higher = stronger transcriptional activation
Conditions: beta-estradiol 1 µM; induction time 4 h
Procedure, shortened: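 The listed activation activity is a read-weighted mean of bin median fluorescence, averaged across barcodes and linearly mapped onto the initial dataset scale. Barcoded tiles, fused to an estradiol-inducible synthetic transcription factor, were integrated at URA3 in yeast diploids bearing a GFP reporter. Cells were held 4 hours at 30 °C in SC with 1 uM beta-estradiol, sorted into 8 GFP:mCherry bins, and sequenced, and tiles with fewer than 50 reads were excluded.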

MCVGTCIYINIPGLHRCYLLLLHLRLSYHIPMYMFIGVPGLRFRVALLISSYF
transcriptional activation domain activity: 53300

MCVHVCLMFCSLLLSLSPFFFFHDLFLFLYTFSFSLSCFTPSYFSMFSSIPSS
transcriptional activation domain activity: 76200

MCVLFGNFFFFLLFSFCFYLFFFLSSFLAPLPAFFLLFCLLMGRKIGVGIIPL
transcriptional activation domain activity: 40800

MCVLHHLSHTLCFALFCYVIEAFRFTSYLLLLPFWRFYVLVVIPLFIHISYVF
transcriptional activation domain activity: 52500

MCVVFFPVLLLWRLLFRSFSFLPVCIVSPVTRFFFLSFFPSQSIVSNSFILPA
transcriptional activation domain activity: 29800

MCVWELVLVLVVWCFRCFSFFHPLHFLPWLLYPSPLISLFFCLFYPLLFFVFF
transcriptional activation domain activity: 37900

MCWACRILAAFPPPLPVFWFWFWFWFWFWFWFWLTAGWLAGFGFFVFAFCFLY
transcriptional activation domain activity: 32500

MCYIIIVRWKRVWISCSCLAVIPVCPSIIPLLSILILSSLFFPFNPIFPIHGI
transcriptional activation domain activity: 34100

MCYQGQHVYLNHEVFAQSLLAVGFARCQVRLMWVAGIRPIVRVSTNNFLGSIR
transcriptional activation domain activity: 44800

MDAAVATEPIPKKRGRPRKVASEETPAVEPKGVRKASTKTAAAVKKEEAPKKV
transcriptional activation domain activity: 37900

MDAPQNNSRGNNARRNRNRGGNRQSTGGVTKQQSQQQSKPAAKPVNVQTTVVI
transcriptional activation domain activity: 47800

MDASSPTSSSAKTPHNKGPRACATCARAKSRCIAGPDGAAGNCERCHRLKKPC
transcriptional activation domain activity: 9040

MDATAKKAVEQPKRRACDECRGRKLACSKEVDGCARCKREGIKCVYSAQKRMG
transcriptional activation domain activity: 10500

MDAVSDAARESPDSERGAESEAKRRKVRKGTRSCWECKRRKIRCSFSTASDSV
transcriptional activation domain activity: 38000

MDAYFFFVFLSFLFFYIFFLLFSILLLFSFYFLCSGVHNMCFLVGVWLWSRGG
transcriptional activation domain activity: 35800

MDCLGMEFIGCEIFGAVALIFLFFFLFFFFFIFFHFLLIFLFSFSFFLFFFFV
transcriptional activation domain activity: 47200

MDCLLNPVVPCLVCFLPFVCKIAVSLHLPLWSICCVCVSIRIALVCTLIAFII
transcriptional activation domain activity: 50400

MDDALSVKSNDDGTYDVAVHIADVSYFVKPNTALDRDARKRATSVYLIQRAVP
transcriptional activation domain activity: 15900

MDDDIAMFDSLATTQPIDIAASNQQNGEIAQLWDFNVDQFNMTPSNSSGSATI
transcriptional activation domain activity: 76100

MDDTDSSAAGGARWIVVSTGGRAQSPEDEAGLRRVKGACRARQNKSKNAILIH
transcriptional activation domain activity: 47100

MDDTERRTAKRSRFDQTEPEPKPRASRFDRRSRSPPARKPESRRSRSPIARPS
transcriptional activation domain activity: 17000

MDEDEDENENENENSKPPPPLPALPPHPHPHPHPHPHPHPQPQQPQSSSTTNE
transcriptional activation domain activity: 40800

MDEEADEKGGKRRTSRACDGCRRRKIRCIASGEANSSEKAPCVNCAQSKLSCT
transcriptional activation domain activity: 27500

MDEEVEERNKAFEWTSYSWGKMQIIRYWSRCHAIVVLYTSKRRMWLLVCWLSA
transcriptional activation domain activity: 60400

MDEGFFFFCFSFLFLLSPPSSWYFVFSFFLPLNFPSCSLFFVITFFLFLFFFW
transcriptional activation domain activity: 37900

MDELGKIAFGSIPPPQAEPNLIGDNFGIFVDDMFTAYEDPMAHWSFLFEDLFP
transcriptional activation domain activity: 151000

MDESDGERGGGYGVFFLLFFFFFFLSFLFSFWLFLLFTFVLISFFGAITLLKE
transcriptional activation domain activity: 25600

MDEVGLSSMRYYHFSIFNVLIVFLLGTTFLNTIIDLVYTPTSILTLLANSLPQ
transcriptional activation domain activity: 51800

MDFFYIFNYLISYITNRLMILLYYFTHTHFLLFPLSLFYYYFSCSCFFLLFPP
transcriptional activation domain activity: 36500

MDFNGVVFCPVYISLLPLFFYPYNIYHFNDSLMRPNEISVAVYLLLILLNFQD
transcriptional activation domain activity: 51000

MDFNQLLAIFYDCIFPFREFYRWLYYGGVVQKNYFLHRELSFTLSNDAYLRFK
transcriptional activation domain activity: 41100

MDFTLTWVKLHVYFFFLPYPCWKINSLVYPFFFLFFLSFPFSFFFSLFSLFLC
transcriptional activation domain activity: 69100

MDGDERPRKRARLACTNCNARRVKCDVTDRQPCRNCEIAHAVCETRESKRGKH
transcriptional activation domain activity: 9400

MDGEPANPAVSAPTTRRRRRRPALVCEQCRVRKIKCDRGSPCSKCARGRRSHL
transcriptional activation domain activity: 42000

MDGGLFCVSISLVHFLLLLFPSHPLILRLIFLLFTFHFPVRLYFNFVLLQLLT
transcriptional activation domain activity: 67900

MDGLFFFFFPFFFLFITLPTNFILFLIVGGSSSSLFFFFGFWFLVWFGLVYLC
transcriptional activation domain activity: 27600

MDGSEANRPYHAKKPHRKSRSGCRNCKTRKVKCDESRPTCRACRLRREACAYP
transcriptional activation domain activity: 16600

MDGVFGDCFFFLCFIFVFCFITFFFFFGLLLLLCCYGLDGGYVLVFFFLFFFV
transcriptional activation domain activity: 33500

MDGVFGVCFLCFISVFYLCFIAFFFSILTTTLLLWLRWGAMFLSFFLSCYLFF
transcriptional activation domain activity: 32700

MDGVGLGSHRGSGSSSSSSSSAADRAPRHSTRRKRGRESRGAVVVIAATNRPN
transcriptional activation domain activity: 39200

MDGVLKLPFLSFLFPFFLFFSSPPLFSPCFFPLFLSFFAVIAFFPFLCFCLPV
transcriptional activation domain activity: 29300

MDILDIFFLFYSLLVSFLFFFLLITLLFLSPFISISFYFLTAFYVYFWVFFRA
transcriptional activation domain activity: 34100

MDILDIFFLFYSLLVSFLFFSLLIPPLFLSSFISISFYFFDGVLCVLLGFFFR
transcriptional activation domain activity: 61500

MDISFFMLFVFDDFFLYSYFFFPSPRPLSNDATLIHIVCILFIILVGLTIVLL
transcriptional activation domain activity: 36800

MDIYGSCICPGGLALGEFFYFLFFLVLSSYYYYFLFSFLFLFSLFLSFVVWRF
transcriptional activation domain activity: 49700

MDKFRVLRLVLFRWWLFALCLIRFEVMEALLIHSPRFFEKLILVRTNLYLLCI
transcriptional activation domain activity: 50100

MDKIRKGKVVVVGCGGVGSWAAVMLVRSCVQHFVVYLVCSSIYIIISGVSKIR
transcriptional activation domain activity: 58900

MDKLVQYEHTFLPPPHMQYLSYFDCLENLAHYIDAIHPNNLNMWFFLIYDQCI
transcriptional activation domain activity: 63300

MDLFFLLHFFIFIFLWHWLGSCLVWLFLVWLWGVFSFFFYYIFSCVSFFGSAI
transcriptional activation domain activity: 61300

MDLGEERYRRLVSYLFFSFLYLHFIFLYFSFLWFMACGSWQWLNNLFFFISSF
transcriptional activation domain activity: 63800

MDLGSAVPAPRRRIRDRTSQACNRCRATKIRCDNQAPACSPCRAKKLECIRDP
transcriptional activation domain activity: 37600

MDLVILMVYLNNNNNILIIIIMISTLIIHQLVQLIYLNLWLGCILWKTVLCSG
transcriptional activation domain activity: 42900

MDLVLCIGLFGHIPYHLQYSLPFVSFFFSHNIVHYSEMHYFGVVNSGILWLGF
transcriptional activation domain activity: 63300

MDLYFMDLFIVILWCGFIVYLVYFLFFYYESGLVYLYIINSMGLCCESGVLFV
transcriptional activation domain activity: 67500

MDNIRSKHNHLLTAGWIYAFIDFWCITLRHFLIFIASMLFYGYLCIWCPTILV
transcriptional activation domain activity: 59000

MDNKSSKSPGNIPKHRACDECRSRKLACSKEPDGCARCKRERIKCHYSPQKPM
transcriptional activation domain activity: 34700

MDNQAGEQKPKQRRVADRERKRAVRACDGCRRQKEKCDGGVPCRRCIRLRRQC
transcriptional activation domain activity: 53600

MDNTTDLYNYLVDMGLKFLLFWNMVNCKFCHLCLLMPFDITYIIFIFILLLEF
transcriptional activation domain activity: 70300

MDPEQATDAKPPKPPVVRGARACTVCRAAKMKCVGAEDGQKPCQRCKRANVEC
transcriptional activation domain activity: 53000

MDPGLFLMVLLWLSLPLSIVPWNLPMNWCFQSCDTIRPYQARLSGFFLLLLFQ
transcriptional activation domain activity: 48600

MDPQIDSQTPKRPSRGACRECASSKVKCLPQSSTNDGKCERCQLRGKACERRS
transcriptional activation domain activity: 22700

MDPSTRRRVTNIGPLDKRRTLRRCEQCRISRTKCEGGRPCHACRARLVGCRDQ
transcriptional activation domain activity: 41700

MDRQQNGSKRTESVRQPVSCEPCRRRKIKCSRSHPPCDTCRRRRCPDSCVYKS
transcriptional activation domain activity: 43700

MDRVSIRFTLAISLADLGQAVLHMIGSKFSWLSCGLLLGISRFLCLFYIFLSV
transcriptional activation domain activity: 57100

MDSGGRLEVHLFFFLLLFVQMWFSWVYFLFSLVFLTLLTRDLGGLLLLVYSFC
transcriptional activation domain activity: 34700

MDSGTLVGGANADGLVEIPLPGHDSIHLHVTHPRVMFLLTFLVSAACKRDPVS
transcriptional activation domain activity: 27100

MDSLFFFFFLLFFFSSCFGFGCSVGLFLFFSVVCNLYFCLLRSYMYLLALLFT
transcriptional activation domain activity: 51500

MDSQDAGRVSSQGQAVKEKQRSRTGCRTCKSRKVKCDETRGGCRNCERLNLPC
transcriptional activation domain activity: 14700

MDSRPAKRPRKTETEDTLDDTDKKPHKKPPLSCAECRRLKLKVATLAASVIVY
transcriptional activation domain activity: 69000

MDSRPGSFATGVFRAQPVDNTPRKIQKRNRPPVSCLLCRTRKVKCNRQQPCER
transcriptional activation domain activity: 33500

MDTLSSSFAHILCIFFYLHPFLLFFSFSLFPFFVFATPATRTGVRLFYFFFLF
transcriptional activation domain activity: 41600

MDTSNSWFDASKVQSLNFDLQTNSYYSNARGSDPSSYAIEGEYKTLATDDLGN
transcriptional activation domain activity: 14200

MDTTDASRGRSKACTYCNKSKTKCMWAGEPGAGACQRCTRLRRSCILPEKGER
transcriptional activation domain activity: 10200

MDVEAKGRADRDAKRNPTACEHCRAARTRCQPSEQPGVCKKCLALKRECISRT
transcriptional activation domain activity: 16500

MDVGIYVCICFDGLFSFGEFFYVVYTSFINHTIEFLCLFGFHFLFWVLIFFWV
transcriptional activation domain activity: 50900

MDYVWRRVRWIRVRKHMVFIATLLEPFTECMLVCLIGALSARHLFDIRLVVFY
transcriptional activation domain activity: 49000

MEACMSIMMIPMILRNGTVFSFFFRVMLYFTCIVSMAGWLVPGSYWLWFGLVC
transcriptional activation domain activity: 48100

MEAKEGRPGNAFACERCRKHKVRCVPSDAPGICQRCQRARAPCIEHVARRRPA
transcriptional activation domain activity: 31400

MEAREGRAGNAFACERCRKHKVRCVPSGTAGICQRCQKARVECIEHVARRRPA
transcriptional activation domain activity: 29100

MEASFYFSSSSFCSAFLFFYFFILFFWGGFPLFPSQLFLSLSLLFIHTLSLFP
transcriptional activation domain activity: 26700

MEDAADDGAASTKKAKVSKKRKKDIESDGEQEKPAKTPKTKLKLNNKTPKEAS
transcriptional activation domain activity: 48700

MEDAGDDATPATKKGKGMKKRKKGEESDGENEKPAKTPKTKLKLTNKTPKEAS
transcriptional activation domain activity: 36600

MEEPSGDASRRRNGPRLYHKKSRLGCIRCKQRRVKCDEKRPACTGCSRHAVEC
transcriptional activation domain activity: 60500
